B1: FY1 IgG (antibody, V domains shown)
VH: QVQLQESGPGLVKPSQTLSLTCAISGDSVSSNNAVWNWIRQSPSRGLEWLGRTYYRSKWYNDYAESVKSRITVNPDTSKNQFSLHLKSVTPEDTAVFYCVRSGHITVFGVNVDAFDMWGQGTMVTVSS
VL: DIQMTQSPSSLSASVGDRVTITCRTSQSLSSYLHWYQQKPGKAPKLLIYAASSLQSGVPSRFSGSGSGTDFTLTISSLQPEDFATYYCQQSRTFGQGTKVEIK
B2: GL20/39FTL BiS4 100/44 (bispecific antibody)
light: DIQMTQSPSSLSASVGDRVTITCRTSQSLSSYTHWYQQKPGKAPKLLIYAASSRGSGVPSRFSGSGSGTDFTLTISSLQPEDFATYYCQQSRTFGQGTKVEIK
heavy (part 1 of 2): QVQLQQSGPGLVKPSQTLSLTCAISGDSVSSYNAVWNWIRQSPSRGLEWLGRTYYRSGWYNDYAESVKSRITINPDTSKNQFSLQLNSVTPEDTAVYYCARSGHITVFGVNVDAFDMWGQGTMVTVSS
heavy (part 2 of 2): DIQMTQSPSSVSASVGDRVTITCRASQDISTWLAWYQQKPGKAPKLLIYAASSLQSGVPSRFSGSGSGTDFTLTISSLQPEDFATYYCQQANSFPPTFGCGTKLEIKGGGGSGGGGSGGGGSGGGGSEVQLVESGGGLVKPGGSLRLSCAASGFTFLNAWMSWVRQAPGKCLEWVGRIKSNTDGGTTDYAAPVKGRFTISRDDSKNTLYLQMSSLKTEDTAVYYCTTDGPYSDDFRSGYAARYRYFGMDVWGQGTTVTVSS
B3: GL20 IgG (antibody, V domains shown)
VH: QVQLQQSGPGLVKPSQTLSLTCAISGDSVSSYNAVWNWIRQSPSRGLEWLGRTYYRSGWYNDYAESVKSRITINPDTSKNQFSLQLNSVTPEDTAVYYCARSGHITVFGVNVDAFDMWGQGTMVTVSS
VL: DIQMTQSPSSLSASVGDRVTITCRTSQSLSSYTHWYQQKPGKAPKLLIYAASSRGSGVPSRFSGSGSGTDFTLTISSLQPEDFATYYCQQSRTFGQGTKVEIK
B4: FBC39 IgG (antibody, V domains shown)
VH: EVQLVVSGGGLVKPGGSLRLSCAASGLSFLNAWMSWVRQAPGKGLEWVGRIKSNTDGGTTDYAAPVKGRFSISRDDSKNMLFLHMSSLRTEDTAVYYCATDGPYSDDFRSGYAARYRYFGMDVWGQGTTVTVSS
VL: DIQMTQSPSSVSASVGDRVTITCRASQDISTWLAWYQQKPGKAPKLLIYAASSLQSGVPSRFSGSGSGTDFTLTISSLQPEDFATYFCQQANSFPPTFGQGTKLEIK
B5: FY1/39 BiS1 100/44 (bispecific antibody)
light: DIQMTQSPSSVSASVGDRVTITCRASQDISTWLAWYQQKPGKAPKLLIYAASSLQSGVPSRFSGSGSGTDFTLTISSLQPEDFATYFCQQANSFPPTFGCGTKLEIKGGGGSGGGGSGGGGSGGGGSEVQLVVSGGGLVKPGGSLRLSCAASGLSFLNAWMSWVRQAPGKCLEWVGRIKSNTDGGTTDYAAPVKGRFSISRDDSKNMLFLHMSSLRTEDTAVYYCATDGPYSDDFRSGYAARYRYFGMDVWGQGTTVTVSSGGGGSGGGGSDIQMTQSPSSLSASVGDRVTITCRTSQSLSSYLHWYQQKPGKAPKLLIYAASSLQSGVPSRFSGSGSGTDFTLTISSLQPEDFATYYCQQSRTFGQGTKVEIKRTVAAPSVFIFPPSDEQLKSGTASVVCLLNNFYPREAKVQWKVDNALQSGNSQESVTEQDSKDSTYSLSSTLTLSKADYEKHKVYACEVTHQGLSSPVTKSFNRGEC
heavy: not shown
B6: FBD94 IgG (antibody, V domains shown)
VH: EVQLVESGGGLVQPGRSLRLSCAVSGFIFEDYAINWVRQAPGKGLEWVSIISWDSGRIGYADSVRGRFTISRDNAKNSSFLQMNSLRPEDTAVYYCVKDMLAYYYDGSGIRYNLYGMDVWGQGTTVTVSS
VL: EIVLTQSPATLSLSPGERATLSCRASRSITTFLAWYQQKPGQAPRLLIYDASNRATGVPARFSGSGSGTDFTLTINSLEPDDFAIYYCQQRDHWPPIFGQGTRLEIK
B7: FY1/94 BiS2 100/44 (bispecific antibody)
light: DIQMTQSPSSLSASVGDRVTITCRTSQSLSSYLHWYQQKPGKAPKLLIYAASSLQSGVPSRFSGSGSGTDFTLTISSLQPEDFATYYCQQSRTFGQGTKVEIKRTVAAPSVFIFPPSDEQLKSGTASVVCLLNNFYPREAKVQWKVDNALQSGNSQESVTEQDSKDSTYSLSSTLTLSKADYEKHKVYACEVTHQGLSSPVTKSFNRGEC
heavy: not shown
B8: FY1/94 BiS4 100/44 (bispecific antibody)
light: DIQMTQSPSSLSASVGDRVTITCRTSQSLSSYLHWYQQKPGKAPKLLIYAASSLQSGVPSRFSGSGSGTDFTLTISSLQPEDFATYYCQQSRTFGQGTKVEIKRTVAAPSVFIFPPSDEQLKSGTASVVCLLNNFYPREAKVQWKVDNALQSGNSQESVTEQDSKDSTYSLSSTLTLSKADYEKHKVYACEVTHQGLSSPVTKSFNRGEC
heavy: not shown
B9: FY1/39 BiS2 100/44 (bispecific antibody)
light: DIQMTQSPSSLSASVGDRVTITCRTSQSLSSYLHWYQQKPGKAPKLLIYAASSLQSGVPSRFSGSGSGTDFTLTISSLQPEDFATYYCQQSRTFGQGTKVEIKRTVAAPSVFIFPPSDEQLKSGTASVVCLLNNFYPREAKVQWKVDNALQSGNSQESVTEQDSKDSTYSLSSTLTLSKADYEKHKVYACEVTHQGLSSPVTKSFNRGEC
heavy: not shown
B10: FY1/39 BiS3 100/44 (bispecific antibody)
light: DIQMTQSPSSLSASVGDRVTITCRTSQSLSSYLHWYQQKPGKAPKLLIYAASSLQSGVPSRFSGSGSGTDFTLTISSLQPEDFATYYCQQSRTFGQGTKVEIKRTVAAPSVFIFPPSDEQLKSGTASVVCLLNNFYPREAKVQWKVDNALQSGNSQESVTEQDSKDSTYSLSSTLTLSKADYEKHKVYACEVTHQGLSSPVTKSFNRGEC
heavy: not shown
B11: FY1/39 BiS4 100/44 (bispecific antibody)
light: DIQMTQSPSSLSASVGDRVTITCRTSQSLSSYLHWYQQKPGKAPKLLIYAASSLQSGVPSRFSGSGSGTDFTLTISSLQPEDFATYYCQQSRTFGQGTKVEIKRTVAAPSVFIFPPSDEQLKSGTASVVCLLNNFYPREAKVQWKVDNALQSGNSQESVTEQDSKDSTYSLSSTLTLSKADYEKHKVYACEVTHQGLSSPVTKSFNRGEC
heavy: not shown
B12: FY1/39 BiS4 43/105 (bispecific antibody)
light: DIQMTQSPSSLSASVGDRVTITCRTSQSLSSYLHWYQQKPGKAPKLLIYAASSLQSGVPSRFSGSGSGTDFTLTISSLQPEDFATYYCQQSRTFGQGTKVEIKRTVAAPSVFIFPPSDEQLKSGTASVVCLLNNFYPREAKVQWKVDNALQSGNSQESVTEQDSKDSTYSLSSTLTLSKADYEKHKVYACEVTHQGLSSPVTKSFNRGEC
heavy: not shown
B13: GL20/39FTL BiS4 43/105 (bispecific antibody)
light: DIQMTQSPSSLSASVGDRVTITCRTSQSLSSYTHWYQQKPGKAPKLLIYAASSRGSGVPSRFSGSGSGTDFTLTISSLQPEDFATYYCQQSRTFGQGTKVEIKRTVAAPSVFIFPPSDEQLKSGTASVVCLLNNFYPREAKVQWKVDNALQSGNSQESVTEQDSKDSTYSLSSTLTLSKADYEKHKVYACEVTHQGLSSPVTKSFNRGEC
heavy: not shown
B14: GL20/39 BiS4 100/44 (bispecific antibody)
light: DIQMTQSPSSLSASVGDRVTITCRTSQSLSSYTHWYQQKPGKAPKLLIYAASSRGSGVPSRFSGSGSGTDFTLTISSLQPEDFATYYCQQSRTFGQGTKVEIKRTVAAPSVFIFPPSDEQLKSGTASVVCLLNNFYPREAKVQWKVDNALQSGNSQESVTEQDSKDSTYSLSSTLTLSKADYEKHKVYACEVTHQGLSSPVTKSFNRGEC
heavy: not shown

Biological target: recombinant HA derived from A/California/07/2009 H1N1 (influenza A virus, UniProt P26140 18-529)
Test: ELISA, rHA coated on plate

Row | Binder | EC50 [nM] | binding result
1 | B1 | 2.15 | 
2 | B2 | 0.99 | 
3 | B3 | 1.99 | 
4 | B4 |  | no binding
5 | B5 | 6.85 | 
6 | B6 |  | no binding
7 | B7 | 6.83 | 
8 | B8 | 1.53 | 
9 | B9 | 3.97 | 
10 | B10 | 1.52 | 
11 | B11 | 1.19 | 
12 | B12 | 0.78 | 
13 | B13 | 0.86 | 
14 | B14 | 0.95 | 
